Values quoted from earlier work, collected in PMC9395234.

Molecular target: C4BP (Homo sapiens) (UniProt P04003)
Chain of UniProt P04003 (P04003 49-597, chain 1 of 2): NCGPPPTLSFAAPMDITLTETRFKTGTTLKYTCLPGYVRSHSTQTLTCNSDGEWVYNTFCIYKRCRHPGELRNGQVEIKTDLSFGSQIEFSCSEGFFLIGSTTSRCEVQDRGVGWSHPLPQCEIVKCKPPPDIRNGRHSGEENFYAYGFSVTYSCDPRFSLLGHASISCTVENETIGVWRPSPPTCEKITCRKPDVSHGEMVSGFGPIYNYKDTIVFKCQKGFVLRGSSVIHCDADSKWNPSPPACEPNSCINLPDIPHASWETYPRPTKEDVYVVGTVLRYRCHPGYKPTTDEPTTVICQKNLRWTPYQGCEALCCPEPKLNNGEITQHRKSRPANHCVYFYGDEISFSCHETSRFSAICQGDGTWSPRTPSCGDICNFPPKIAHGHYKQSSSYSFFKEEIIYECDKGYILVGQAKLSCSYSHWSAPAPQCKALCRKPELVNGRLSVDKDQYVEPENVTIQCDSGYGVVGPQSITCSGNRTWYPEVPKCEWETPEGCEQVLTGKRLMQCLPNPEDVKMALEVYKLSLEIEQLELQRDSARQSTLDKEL
Chain of UniProt P04003 (P20851 18-252, chain 2 of 2, further chain): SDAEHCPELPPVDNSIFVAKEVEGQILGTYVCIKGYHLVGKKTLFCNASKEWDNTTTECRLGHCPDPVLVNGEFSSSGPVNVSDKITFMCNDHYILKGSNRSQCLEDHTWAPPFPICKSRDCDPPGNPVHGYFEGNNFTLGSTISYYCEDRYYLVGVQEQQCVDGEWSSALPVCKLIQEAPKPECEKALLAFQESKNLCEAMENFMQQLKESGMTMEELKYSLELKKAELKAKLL

Kd: 0.1 nM
Substance: Protein S (from UniProt P07225)
